This is an account of results in patent publication US20260070987A1.

For orientation: Kd means the concentration at which binding is half-saturated.

The chains are these.
B1: equine IgG1 Q311Y (antibody, part only; not given: Variable domains, not shown: another chain or arm of the molecule)
constant: ASTTAPKVFALAPGCGTTSDSTVALGCLVSGYFPEPVKVSWNSGSLTSGVHTFPSVLQSSGFYSLSSMVTVPASTWTSETYICNVVHAASNFKVDKRIEPIPDNHQKVCDMSKCPKCPAPELLGGPSVFIFPPNPKDTLMITRTPEVTCVVVDVSQENPDVKFNWYMDGVEVRTATTRPKEEQFNSTYRVVSVLRIQHYDWLSGKEFKCKVNNQALPQPIERTITKTKGRSQEPQVYVLAPHPDELSKSKVSVTCLVKDFYPPEINIEWQSNGQPELETKYSTTQAQQDSDGSYFLYSKLSVDRNRWQQGTTFTCGVMHEALHNHYTQKNVSKNPGK
B2: equine IgG1 D312A (antibody, part only; not given: variable domains, not shown: another chain or arm of the molecule)
constant: ASTTAPKVFALAPGCGTTSDSTVALGCLVSGYFPEPVKVSWNSGSLTSGVHTFPSVLQSSGFYSLSSMVTVPASTWTSETYICNVVHAASNFKVDKRIEPIPDNHQKVCDMSKCPKCPAPELLGGPSVFIFPPNPKDTLMITRTPEVTCVVVDVSQENPDVKFNWYMDGVEVRTATTRPKEEQFNSTYRVVSVLRIQHQAWLSGKEFKCKVNNQALPQPIERTITKTKGRSQEPQVYVLAPHPDELSKSKVSVTCLVKDFYPPEINIEWQSNGQPELETKYSTTQAQQDSDGSYFLYSKLSVDRNRWQQGTTFTCGVMHEALHNHYTQKNVSKNPGK
B3: equine IgG1 M252L (antibody, part only; not given: variable domains, not shown: another chain or arm of the molecule)
constant: ASTTAPKVFALAPGCGTTSDSTVALGCLVSGYFPEPVKVSWNSGSLTSGVHTFPSVLQSSGFYSLSSMVTVPASTWTSETYICNVVHAASNFKVDKRIEPIPDNHQKVCDMSKCPKCPAPELLGGPSVFIFPPNPKDTLLITRTPEVTCVVVDVSQENPDVKFNWYMDGVEVRTATTRPKEEQFNSTYRVVSVLRIQHQDWLSGKEFKCKVNNQALPQPIERTITKTKGRSQEPQVYVLAPHPDELSKSKVSVTCLVKDFYPPEINIEWQSNGQPELETKYSTTQAQQDSDGSYFLYSKLSVDRNRWQQGTTFTCGVMHEALHNHYTQKNVSKNPGK
B4: equine IgG1 D312H (antibody, part only; not given: variable domains, not shown: another chain or arm of the molecule)
constant: ASTTAPKVFALAPGCGTTSDSTVALGCLVSGYFPEPVKVSWNSGSLTSGVHTFPSVLQSSGFYSLSSMVTVPASTWTSETYICNVVHAASNFKVDKRIEPIPDNHQKVCDMSKCPKCPAPELLGGPSVFIFPPNPKDTLMITRTPEVTCVVVDVSQENPDVKFNWYMDGVEVRTATTRPKEEQFNSTYRVVSVLRIQHQHWLSGKEFKCKVNNQALPQPIERTITKTKGRSQEPQVYVLAPHPDELSKSKVSVTCLVKDFYPPEINIEWQSNGQPELETKYSTTQAQQDSDGSYFLYSKLSVDRNRWQQGTTFTCGVMHEALHNHYTQKNVSKNPGK
B5: equine IgG1 D312L (antibody, part only; not given: variable domains, not shown: another chain or arm of the molecule)
constant: ASTTAPKVFALAPGCGTTSDSTVALGCLVSGYFPEPVKVSWNSGSLTSGVHTFPSVLQSSGFYSLSSMVTVPASTWTSETYICNVVHAASNFKVDKRIEPIPDNHQKVCDMSKCPKCPAPELLGGPSVFIFPPNPKDTLMITRTPEVTCVVVDVSQENPDVKFNWYMDGVEVRTATTRPKEEQFNSTYRVVSVLRIQHQLWLSGKEFKCKVNNQALPQPIERTITKTKGRSQEPQVYVLAPHPDELSKSKVSVTCLVKDFYPPEINIEWQSNGQPELETKYSTTQAQQDSDGSYFLYSKLSVDRNRWQQGTTFTCGVMHEALHNHYTQKNVSKNPGK
B6: equine IgG1 D312E (antibody, part only; not given: variable domains, not shown: another chain or arm of the molecule)
constant: ASTTAPKVFALAPGCGTTSDSTVALGCLVSGYFPEPVKVSWNSGSLTSGVHTFPSVLQSSGFYSLSSMVTVPASTWTSETYICNVVHAASNFKVDKRIEPIPDNHQKVCDMSKCPKCPAPELLGGPSVFIFPPNPKDTLMITRTPEVTCVVVDVSQENPDVKFNWYMDGVEVRTATTRPKEEQFNSTYRVVSVLRIQHQEWLSGKEFKCKVNNQALPQPIERTITKTKGRSQEPQVYVLAPHPDELSKSKVSVTCLVKDFYPPEINIEWQSNGQPELETKYSTTQAQQDSDGSYFLYSKLSVDRNRWQQGTTFTCGVMHEALHNHYTQKNVSKNPGK
B7: equine IgG1 D312F (antibody, part only; not given: Variable domains, not shown: another chain or arm of the molecule)
constant: ASTTAPKVFALAPGCGTTSDSTVALGCLVSGYFPEPVKVSWNSGSLTSGVHTFPSVLQSSGFYSLSSMVTVPASTWTSETYICNVVHAASNFKVDKRIEPIPDNHQKVCDMSKCPKCPAPELLGGPSVFIFPPNPKDTLMITRTPEVTCVVVDVSQENPDVKFNWYMDGVEVRTATTRPKEEQFNSTYRVVSVLRIQHQFWLSGKEFKCKVNNQALPQPIERTITKTKGRSQEPQVYVLAPHPDELSKSKVSVTCLVKDFYPPEINIEWQSNGQPELETKYSTTQAQQDSDGSYFLYSKLSVDRNRWQQGTTFTCGVMHEALHNHYTQKNVSKNPGK
B8: equine IgG1 D312C (antibody, part only; not given: variable domains, not shown: another chain or arm of the molecule)
constant: ASTTAPKVFALAPGCGTTSDSTVALGCLVSGYFPEPVKVSWNSGSLTSGVHTFPSVLQSSGFYSLSSMVTVPASTWTSETYICNVVHAASNFKVDKRIEPIPDNHQKVCDMSKCPKCPAPELLGGPSVFIFPPNPKDTLMITRTPEVTCVVVDVSQENPDVKFNWYMDGVEVRTATTRPKEEQFNSTYRVVSVLRIQHQCWLSGKEFKCKVNNQALPQPIERTITKTKGRSQEPQVYVLAPHPDELSKSKVSVTCLVKDFYPPEINIEWQSNGQPELETKYSTTQAQQDSDGSYFLYSKLSVDRNRWQQGTTFTCGVMHEALHNHYTQKNVSKNPGK
B9: equine IgG1 D312K (antibody, part only; not given: variable domains, not shown: another chain or arm of the molecule)
constant: ASTTAPKVFALAPGCGTTSDSTVALGCLVSGYFPEPVKVSWNSGSLTSGVHTFPSVLQSSGFYSLSSMVTVPASTWTSETYICNVVHAASNFKVDKRIEPIPDNHQKVCDMSKCPKCPAPELLGGPSVFIFPPNPKDTLMITRTPEVTCVVVDVSQENPDVKFNWYMDGVEVRTATTRPKEEQFNSTYRVVSVLRIQHQKWLSGKEFKCKVNNQALPQPIERTITKTKGRSQEPQVYVLAPHPDELSKSKVSVTCLVKDFYPPEINIEWQSNGQPELETKYSTTQAQQDSDGSYFLYSKLSVDRNRWQQGTTFTCGVMHEALHNHYTQKNVSKNPGK
B10: equine IgG1 D312G (antibody, part only; not given: variable domains, not shown: another chain or arm of the molecule)
constant: ASTTAPKVFALAPGCGTTSDSTVALGCLVSGYFPEPVKVSWNSGSLTSGVHTFPSVLQSSGFYSLSSMVTVPASTWTSETYICNVVHAASNFKVDKRIEPIPDNHQKVCDMSKCPKCPAPELLGGPSVFIFPPNPKDTLMITRTPEVTCVVVDVSQENPDVKFNWYMDGVEVRTATTRPKEEQFNSTYRVVSVLRIQHQGWLSGKEFKCKVNNQALPQPIERTITKTKGRSQEPQVYVLAPHPDELSKSKVSVTCLVKDFYPPEINIEWQSNGQPELETKYSTTQAQQDSDGSYFLYSKLSVDRNRWQQGTTFTCGVMHEALHNHYTQKNVSKNPGK
B11: equine IgG1 D312M (antibody, part only; not given: Variable domains, not shown: another chain or arm of the molecule)
constant: ASTTAPKVFALAPGCGTTSDSTVALGCLVSGYFPEPVKVSWNSGSLTSGVHTFPSVLQSSGFYSLSSMVTVPASTWTSETYICNVVHAASNFKVDKRIEPIPDNHQKVCDMSKCPKCPAPELLGGPSVFIFPPNPKDTLMITRTPEVTCVVVDVSQENPDVKFNWYMDGVEVRTATTRPKEEQFNSTYRVVSVLRIQHQMWLSGKEFKCKVNNQALPQPIERTITKTKGRSQEPQVYVLAPHPDELSKSKVSVTCLVKDFYPPEINIEWQSNGQPELETKYSTTQAQQDSDGSYFLYSKLSVDRNRWQQGTTFTCGVMHEALHNHYTQKNVSKNPGK

This assay addresses equine FcRn (large alpha subunit p51) / equine beta-2-microglobulin complex, biotinylated (equine) (UniProt P30441). Nature of the assay: SPR (Biacore), pH 6.
UniProt P30441, sequence (P30441 21-118, one chain of several): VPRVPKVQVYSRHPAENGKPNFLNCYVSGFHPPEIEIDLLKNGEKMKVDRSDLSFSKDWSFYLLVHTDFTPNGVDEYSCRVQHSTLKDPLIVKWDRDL
In turn, B1 showed a dissociation constant Kd of 0.0212 µM.

As to B2, the Kd came out at 0.00986 µM.

B3 gave an equilibrium dissociation constant (Kd) of 0.101 µM.

The molecule B4 displayed a Kd of 0.0171 µM.

For the molecule B5, the dissociation constant Kd is 0.0246 µM.

The molecule B6 had a Kd of 0.0252 µM.

As to B7, the Kd came out at 0.0178 µM.

For the molecule B8, the Kd was 0.021 µM.

Turning to B9, the Kd amounted to 0.0158 µM.

As to B10, the equilibrium dissociation constant (Kd) turned out to be 0.0162 µM.

As for B11, the Kd was found to be 0.0234 µM.
